The test addresses human prostate-specific membrane antigen (PSMA) (human) (UniProt Q04609). Put plainly: cell-based or functional assay. Particulars: for IL-2 content normalized for gene transfer efficiency, transduced PBLs on NIH3T3 feeder expressing PSMA + B7.1: scale: pg/ml divided by percentage transduced cells.

Sequence of human prostate-specific membrane antigen (PSMA) (human) (Q04609 whole entry): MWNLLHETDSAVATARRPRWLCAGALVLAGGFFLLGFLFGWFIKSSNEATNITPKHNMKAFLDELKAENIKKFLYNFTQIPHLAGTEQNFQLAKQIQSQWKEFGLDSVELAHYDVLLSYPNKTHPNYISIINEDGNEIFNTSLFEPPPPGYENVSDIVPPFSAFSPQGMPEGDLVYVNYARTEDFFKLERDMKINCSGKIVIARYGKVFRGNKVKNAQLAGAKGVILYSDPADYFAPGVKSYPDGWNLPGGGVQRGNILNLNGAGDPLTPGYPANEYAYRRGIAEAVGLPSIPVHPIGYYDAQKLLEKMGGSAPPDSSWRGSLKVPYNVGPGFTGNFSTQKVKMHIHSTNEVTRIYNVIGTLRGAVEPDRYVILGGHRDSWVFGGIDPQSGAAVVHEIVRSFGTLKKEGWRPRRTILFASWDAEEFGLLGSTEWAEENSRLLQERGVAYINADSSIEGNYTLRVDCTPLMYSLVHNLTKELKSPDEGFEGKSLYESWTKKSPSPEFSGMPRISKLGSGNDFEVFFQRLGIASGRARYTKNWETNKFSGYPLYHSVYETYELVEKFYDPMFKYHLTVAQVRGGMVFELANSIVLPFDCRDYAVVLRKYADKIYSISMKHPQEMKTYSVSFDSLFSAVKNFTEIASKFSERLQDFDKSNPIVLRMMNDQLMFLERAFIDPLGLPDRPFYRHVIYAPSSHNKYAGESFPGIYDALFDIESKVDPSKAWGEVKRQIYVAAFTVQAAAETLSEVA
Sequence of P28 fusion receptor (J591 scFv fused to human CD28) (P10747 114-220): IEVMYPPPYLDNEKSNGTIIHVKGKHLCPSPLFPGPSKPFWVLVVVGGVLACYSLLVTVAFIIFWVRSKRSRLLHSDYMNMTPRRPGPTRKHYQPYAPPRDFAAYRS

For the substance “P28 fusion receptor (J591 scFv fused to human CD28) (from UniProt P10747 114-220)”, the IL-2 concentration in supernatant (ELISA, 24 h), transduced PBLs on NIH3T3 feeder expressing PSMA was below 50 pg/mL and the IL-2 concentration in supernatant (ELISA, 24 h), transduced PBLs on NIH3T3 feeder expressing PSMA + B7.1 is below 50 pg/mL.

On to “Pz1 fusion receptor (J591 scFv - human CD8 alpha hinge and transmembrane - intracellular domain of human TCR zeta) (from UniProt P01732 137-209)”, for which the IL-2 concentration in supernatant (ELISA, 24 h), transduced PBLs on NIH3T3 feeder expressing PSMA is below 50 pg/mL; the IL-2 concentration in supernatant (ELISA, 24 h), transduced PBLs on NIH3T3 feeder expressing PSMA + B7.1 stood at 164000 pg/mL; the IL-2 content normalized for gene transfer efficiency, transduced PBLs on NIH3T3 feeder expressing PSMA + B7.1 was 3280.

In the case of “Pz28 fusion receptor (Pz1 with the 41 amino acid intracellular domain of human CD28 at its C-terminus) (from UniProt P01732 137-209)”, the IL-2 concentration in supernatant (ELISA, 24 h), transduced PBLs on NIH3T3 feeder expressing PSMA was below 50 pg/mL; the IL-2 concentration in supernatant (ELISA, 24 h), transduced PBLs on NIH3T3 feeder expressing PSMA + B7.1 is 29700 pg/mL; the IL-2 content normalized for gene transfer efficiency, transduced PBLs on NIH3T3 feeder expressing PSMA + B7.1 turned out to be 958.

Values taken from patent publication US20040043401A1.
